Results as given in patent US20090098106.
Substitutions are numbered along the chain they refer to.

Tests used:
[1] = target: T1, HC8 (α7) subunit of the human 20S proteasome, P25788
T1 chain: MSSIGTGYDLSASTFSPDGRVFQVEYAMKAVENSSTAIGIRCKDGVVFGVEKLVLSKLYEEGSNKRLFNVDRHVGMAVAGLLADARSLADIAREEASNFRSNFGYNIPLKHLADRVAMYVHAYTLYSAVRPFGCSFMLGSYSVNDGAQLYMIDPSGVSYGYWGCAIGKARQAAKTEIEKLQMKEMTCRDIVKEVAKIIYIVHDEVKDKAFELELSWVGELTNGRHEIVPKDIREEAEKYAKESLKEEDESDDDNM

[2] = target: T2, HC8 SS 243,250AA mutant, P25788
T2 chain: T1 chain with S243A, S250A

B1: NF-κB inducing kinase (NIK), human, full length (protein)
chain: MAVMEMACPGAPGSAVGQQKELPKPKEKTPPLGKKQSSVYKLEAVEKSPVFCGKWEILNDVITKGTAKEGSEAGPAAISIIAQAECENSQEFSPTFSERIFIAGSKQYSQSESLDQIPNNVAHATEGKMARVCWKGKRRSKARKKRKKKSSKSLAHAGVALAKPLPRTPEQESCTIPVQEDESPLGAPYVRNTPQFTKPLKEPGLGQLCFKQLGEGLRPALPRSELHKLISPLQCLNHVWKLHHPQDGGPLPLPTHPFPYSRLPHPFPFHPLQPWKPHPLESFLGKLACVDSQKPLPDPHLSKLACVDSPKPLPGPHLEPSCLSRGAHEKFSVEEYLVHALQGSVSSSQAHSLTSLAKTWAARGSRSREPSPKTEDNEGVLLTEKLKPVDYEYREEVHWATHQLRLGRGSFGEVHRMEDKQTGFQCAVKKVRLEVFRAEELMACAGLTSPRIVPLYGAVREGPWVNIFMELLEGGSLGQLVKEQGCLPEDRALYYLGQALEGLEYLHSRRILHGDVKADNVLLSSDGSHAALCDFGHAVCLQPDGLGKSLLTGDYIPGTETHMAPEVVLGRSCDAKVDVWSSCCMMLHMLNGCHPWTQFFRGPLCLKIASEPPPVREIPPSCAPLTAQAIQEGLRKEPIHRVSAAELGGKVNRALQQVGGLKSPWRGEYKEPRHPPPNQANYHQTLHAQPRELSPRAPGPRPAEETTGRAPKLQPPLPPEPPEPNKSPPLTLSKEESGMWEPLPLSSLEPAPARNPSSPERKATVPEQELQQLEIELFLNSLSQPFSLEEQEQILSCLSIDSLSLSDDSEKNPSKASQSSRDTLSSGVHSWSSQAEARSSSWNMVLARGRPTDTPSYFNGVKVQIQSLNGEHLHIREFHRVKVGDIATGISSQIPAAAFSLVTKDGQPVRYDMEVPDSGIDLQCTLAPDGSFAWSWRVKHGQLENRP
With B1 the “in vitro kinase assay (phosphorylation of HC8 in the immunoprecipitate)” value [1] was “HC8 was found to be a substrate for NIK phosphorylation in an in vitro kinase assay” and the “in vitro kinase assay (phosphorylation of HC8 in the immunoprecipitate)” value [2] was “Replacement of two serine residues on HC8 (amino acids 243 and 250) by alanine completely abolished the NIK-induced phosphorylation of HC8”.
